Target: GluA3-G (GluA3(Gly439)), flip splice form, R/G-edited, as the GluA3 part of the GluA3-G–TARP-γ2 tandem construct (rat)
Experiment: cryo-EM structure; apo state; GluA3–TARP-γ2 tandem construct purified as a complex from Expi293 cells (digitonin lysis; 50 mM Tris pH 8, 150 mM NaCl, 0.1% GDN), 2–3 mg/ml, vitrified at 4 °C

- stoichiometry N: 4
Substance: GluA3-G (GluA3(Gly439)), flip splice form, R/G-edited, as the GluA3 part of the GluA3-G–TARP-γ2 tandem construct (receptor)
